Consider 167 variants from the RNAGym collection of RNA variant scans (doi:10.1093/nar/gkz1192).

To fix the notation:
B1: CPEB3 Ribozyme (parent)
chain: UAACAGGGGGCCACAGCAGAAGCGUUCACGUCGCAGCCCCUGUCAGAUUCUGGUGAAUCUGCGAAUUCUGCUGUAUAUCUC

This data set covers variants of B1. Briefly: self-cleavage, relative activity (ratio to wild type); higher = more cleavage; in vitro, sequencing. The gist of the method: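 Libraries of CPEB3 self-cleaving ribozyme mutants came from rounds of error-prone PCR and carried barcodes, which DNA sequencing matched to variants. In vitro transcription used T7 RNA polymerase at 37°C for 5 hours, with a further 15 min in DNase I before EDTA stopped the reaction; the ribozymes cleaved during both steps. The RNA was reverse transcribed with template switching and sequenced on Illumina. Relative activity is the cleaved/total read fraction of a variant divided by that of the unmutated ribozyme, averaged over three batches with at least 5 reads.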
With G10A A47G, the self-cleavage was determined as 0.12.
Turning to G10U U49A, the self-cleavage was 0.31.
Consider G10U U49G, for which the self-cleavage turned out to be 0.14.
G10U U49C: the self-cleavage is 0.24.
With G10C G53A, the self-cleavage was determined as 0.26.
As to C11A, the self-cleavage is 0.37.
As to G10C A57G, the self-cleavage came to 0.21.
On to G9U A13G, for which the self-cleavage worked out at 0.24.
With G10U A47G, the self-cleavage worked out at 0.21.
Turning to C11A A57G, the self-cleavage came out at 0.33.
C11A A20G: the self-cleavage was determined as 0.21.
Turning to G10C U43A, the self-cleavage stood at 0.38.
In the case of G10C U43C, the self-cleavage is 0.13.
In the case of G10A U41G it was 0.38; in that of G10A U41A, 0.29; in that of G10A U41C, 0.31.
For the variant C11A A13G, the self-cleavage is 0.09.
In the case of C11A A13U, the self-cleavage is 0.34.
Take G10U U74C: the self-cleavage is 0.46.
Regarding G10U U54C, the self-cleavage came to 0.34.
Turning to G10A A21C, the self-cleavage is 0.15.
Take G10A A21U: the self-cleavage was determined as 0.13.
Consider G10A A21G, for which the self-cleavage was found to be 0.24.
As for G9U U43G, the self-cleavage came to 0.12.
On to G9U U43C, for which the self-cleavage turned out to be 0.15.
Take G9U U43A: the self-cleavage was determined as 0.52.
For G10C U26G, the self-cleavage was 0.39.
For G10C U26C, the self-cleavage is 0.21.
Turning to G9U C14U, the self-cleavage came to 0.11.
As to C11A A28U, the self-cleavage is 0.67.
For C11A A28G, the self-cleavage was 0.1.
As to G9U U78A, the self-cleavage was determined as 0.27.
As for G9U U78C, the figure is 0.2; as for G10A U54G, 0.16.
As to G10A U54A, the self-cleavage amounted to 0.35.
With G10A U54C, the self-cleavage was determined as 0.19.
As to G10C G73A, the self-cleavage amounted to 0.35.
With G10A U31C, the self-cleavage was 0.2.
G10U U41A: the self-cleavage was found to be 0.22.
G10C A47U: the self-cleavage amounted to 0.15.
In the case of G10U C37A, the self-cleavage came to 0.72.
As to G10C A75G, the self-cleavage was determined as 0.24.
For G10U U25C, the self-cleavage was determined as 0.21.
As for G9U C29U, the figure is 0.13.
As for G10U A56U, the self-cleavage is 0.08.
For the variant G10U A56G, the self-cleavage turned out to be 0.16.
As for G10A A56G, the figure is 0.15; as for G10A A56U, 0.12; as for G10U A13G, 0.11.
In the case of G10U A13U it was 0.1; in that of G10A C81G, 0.3; in that of G10A C59A, 0.06.
With G9U U31C, the self-cleavage is 0.13.
Take G9U U31G: the self-cleavage is 0.06.
On to G10C U48C, for which the self-cleavage was 0.22.
For the variant G10C C11A, the self-cleavage was found to be 0.33.
G10A U66C: the self-cleavage is 0.2.
As for G10U A28G, the self-cleavage was found to be 0.17.
In the case of G10C U69A it was 0.3; in that of G10C U69G, 0.16; in that of G10C U69C, 0.12.
As for G10U U43C, the self-cleavage turned out to be 0.34.
With G10C A65G, the self-cleavage was 0.33.
As for G9U U41C, the figure is 0.32; as for G9U U41A, 0.15.
As for C11A A64G, the figure is 0.21; as for G10A C44U, 0.21; as for G10U U26A, 0.32.
On to G10U U26C, for which the self-cleavage is 0.28.
For the variant G9U, the self-cleavage turned out to be 0.24.
With G10A U72G, the self-cleavage was 0.24.
G10A U72C: the self-cleavage was 0.39.
G10A U72A: the self-cleavage was determined as 0.22.
In the case of G9U U48C, the self-cleavage was 0.29.
Take G10A U43C: the self-cleavage is 0.06.
Regarding G10A U43G, the self-cleavage came to 0.19.
Take G10A U43A: the self-cleavage is 0.28.
As for G10A A35G, the figure is 0.55.
In the case of G10A A35U, the self-cleavage worked out at 0.11.
Regarding G10U C40U, the self-cleavage is 0.06.
In the case of G10C A21G it was 0.18; in that of G10A U26G, 0.05.
Turning to G10A U26C, the self-cleavage worked out at 0.22.
As for G10A U26A, the self-cleavage amounted to 0.07.
As for G9U A47G, the figure is 0.29; as for G10A U48C, 0.2.
As to G9U C81U, the self-cleavage was found to be 0.27.
As for G10A U78G, the self-cleavage was 0.33.
For the variant G10A U78C, the self-cleavage amounted to 0.24.
For G10U U67C, the self-cleavage came to 0.12.
As to G10A G30U, the self-cleavage is 0.17.
In the case of G10U U66A it was 0.18; in that of G10U U72C, 0.22.
With G9U A57G, the self-cleavage was determined as 0.25.
For the variant G10C C14U, the self-cleavage worked out at 0.5.
Consider G9U A20G, for which the self-cleavage amounted to 0.34.
In the case of G10C U78A, the self-cleavage was found to be 0.09.
For the variant G10C U78C, the self-cleavage worked out at 0.17.
As to G9U U80A, the self-cleavage amounted to 0.26.
Turning to G9U U80C, the self-cleavage came to 0.24.
C11A A45G: the self-cleavage worked out at 0.41.
As to G10A A13G, the self-cleavage turned out to be 0.26.
For G10A A13U, the self-cleavage came out at 0.28.
Take G10A A13C: the self-cleavage is 0.28.
On to C11A A47G, for which the self-cleavage amounted to 0.51.
In the case of C11A A47U it was 0.27; in that of G10A U49G, 0.18.
G10A U49C: the self-cleavage turned out to be 0.19.
In the case of G9U A21G, the self-cleavage was found to be 0.22.
As for G9U G53U, the figure is 0.36; as for G10A C39A, 0.37; as for G10A G36A, 0.26.
Consider G9U C62U, for which the self-cleavage stood at 0.13.
As for G10C U49C, the figure is 0.22; as for G10C U49A, 0.2; as for G10C U49G, 0.17.
In the case of G9U U67C, the self-cleavage came to 0.24.
G9U U67A: the self-cleavage is 0.11.
As for G10U U51C, the figure is 0.4.
On to G10C G42U, for which the self-cleavage stood at 0.16.
On to G9U C40A, for which the self-cleavage came out at 0.14.
G9U C40U: the self-cleavage was determined as 0.19.
As for G9U A65G, the self-cleavage was 0.17.
For the variant G10U U58C, the self-cleavage is 0.34.
Regarding G10A A75G, the self-cleavage was found to be 0.19.
As for G9U C59U, the figure is 0.06; as for G10A U76C, 0.33.
Consider G10A U76A, for which the self-cleavage was 0.23.
Consider G10A C23A, for which the self-cleavage is 0.06.
For G10A G24A, the self-cleavage is 0.16.
As for G10A A28U, the figure is 0.17; as for G10A A28G, 0.21; as for G10A A28C, 0.1.
In the case of G10A A20G, the self-cleavage worked out at 0.3.
For G10A A20C, the self-cleavage stood at 0.22.
Take G10A A20U: the self-cleavage amounted to 0.23.
Take C11A A15U: the self-cleavage amounted to 0.37.
For the variant C11A A15G, the self-cleavage is 0.21.
Turning to G10A A57U, the self-cleavage was 0.05.
As to G10A A57G, the self-cleavage is 0.29.
G10C A18U: the self-cleavage is 0.12.
For G10C A18G, the self-cleavage turned out to be 0.13.
Take G10A C71G: the self-cleavage was 0.12.
For G10A C71U, the self-cleavage is 0.08.
For the variant G10A C71A, the self-cleavage came to 0.11.
In the case of G10A U67C it was 0.25; in that of G10A U51A, 0.33.
For the variant G10A U51C, the self-cleavage stood at 0.24.
As for G10C C44U, the self-cleavage was found to be 0.18.
For G10C C12U, the self-cleavage amounted to 0.1.
In the case of G10C C12A it was 0.44.
As for G10C U25C, the self-cleavage came out at 0.07.
Consider G10C U76C, for which the self-cleavage is 0.19.
In the case of G9U U51C it was 0.17; in that of G9U U51A, 0.14; in that of G10A A18G, 0.23.
For G10A A18C, the self-cleavage stood at 0.35.
As for G10A A18U, the figure is 0.15; as for G10A A15G, 0.24; as for G10A A15U, 0.2.
With G9U U76C, the self-cleavage came to 0.13.
On to G9U U76A, for which the self-cleavage stood at 0.39.
Turning to G10A A64G, the self-cleavage was determined as 0.24.
For G10A A64C, the self-cleavage is 0.18.
In the case of G10A A64U, the self-cleavage turned out to be 0.15.
Turning to G10C G24U, the self-cleavage amounted to 0.15.
In the case of G10U U80C, the self-cleavage worked out at 0.23.
